Test results as given in the domain aggregation screens of Martell et al. (2025).

Assay: soluble fraction after stress (log2 fold change); higher = more stays soluble; pooled small domains, quantitative proteomics
Conditions: stress: 50 degC
In short: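 Custom libraries of small protein domains were pooled and measured in a high-throughput format, with quantitative proteomics as the read-out. Each library was stressed at 50°C. The value is the log2 fold change in the amount of each protein that stays soluble after stress, used as a measure of aggregation propensity; higher values mean more of the protein stays soluble.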

Sequence	soluble fraction (log2)
HMPDLSEDEEKIVSLLRDNNDLNVNIIVMRTQLPSATVTSSLFSLELKGVVRMYAGGMYHLM	-1.7
HMHESLAEVAARKLRALIVTGELAPGERVTEAGLTDLLEISRTPAREAIRILSSEGLLVVFPNRGAEVV	-0.822
HMRSLATFEEEKIALRFWNYLQSEGIKSTLEEEGPRDWVIWVIDEEKIPSATQSLEKFNLNPDDPAFSN	-0.438
HMLTIQNYFNQVKNIDWEQVPAALSKGHQLVEGASQNNWSAYHSNANIQRVVEAYFQKLNDYLEKN	-0.191
HMDLPREKRIEIGLTYIYGIGLKTSQKILAATGIDPNTRVKDLDETTVSKLREYIDHNYRVEGELRS	-0.504
HMKFLHLADLHLGKRVNGFSMLEDQAYILRQILTILDDERPDGVLIAGDVYDKPVPPTEAVELLD	-0.604
HMADFYEVLGVERNASSDQIKRAYRKLARELHPDVNLDPVAQNRFKEVTEAYEVLSDPNKRSNFDRG	0.209
HMTEIILTARSGRHAVRHRLEGLGYTLTPEELERVHQRFLAVADAKKEVFDEDLHALMADERGT	0.0349
HMEKYIVNQEEQGKRLDIYVVNKSSELTRTAVQRLIEQEHILVNGRKQKASYKVLEGDIITIERV	0.573
HMFHDALVSFAERRVIFMKELVNRLNEARKAYYEGESIMSDKEYDNLYDKLVKMELTTGVVLPNSPTEEVG	-1.37
HMLPVLEIGTMIRIIRQPHFGTIARVVALPEELTKVESETLVRILDAEFDDGTRVRIPRANVEVIE	-1.25
HMIKSIRELAEVITLWKNQGKTILIAEHRLSYLMDLADRVLYMKDGQIENDFSMADFRKIPPDEISRMGLR	-0.126
HMGQLSDREALTVLAREALVELPRAAGDYRNGRTAALQSLVGRVMRKTAGRGNPALLQEIFRSLL	-0.436
HMVDIIMDLLEAVAQARPADAFIKSLHIQYQERGGLSKKQLQGLYGKAAKTAGIPPGKLATLEAIILKRP	-1.38
HMSTANIVVPDVKGKTFEEAKKAIEAEGLTAKAEGDESGVVQKTSPSYGVSVESGSEVTLTLVKSDD	-0.0409
HMPANVELLRTFTNKTGTKIKARIVAVSDNKVKLIRDDSKKFIVPIDSLSEEDQKYLKDWIANEVGEQ	0.0498
HMDHSSLIKKLRLERGLSQKKLAQGISQRSTLASFENNATKISYNILIQYLDRMNVTLEEYQFMLDGNNL	-2.06
HMIELEGVISSVLAGTMFKVKLRGNGHEVLAHISGKMRKKFIRLVIGDAVKIEMSPYDMDKARIVYRI	-0.00875
HMEDQITNQQFTMTKQSILDLLVKKSYPPYELANELHLKKEEVLPIIRFLIAENEIHFKDGMLHLPH	-0.167
HMGLPAWVPQNYIDRVTAIYDYSADKDDELTFNEGSTIFVLKKNDDGWWEGVMDGVTGLFPGNYVEAT	-0.8
HMKSFDERQAALNELAKVIEGTGRKAEQDAEFRREQNQLMIDKIDEQLKGDLTDSQREELKKERAALARK	0.153
HMKPDWLSDGRLIPDEVMSHLRKIAVHAVEEMGYSPEDVIKILGLSRNTIYDWLKRFREHGYEGLDTKK	-0.258
HMSNGEWQQGSDGRWWYKFSDGTYPKNKVETIGGKKYGFDSEGWMLANTTKEFSGTTYSFGADGVATS	0.158
HMYEDGGAFLKAEREKYGLTLTDIYEHTHIPVRKLKAYEMHEEEMPDRTRALLELYFDQVAYEYES	-0.443
HMNPGHAERGKEIVEVFLRNNGELSMREIAEKSNITITQARRRVNKLLDQGIVEATAPVQSRNRKYRIK	0.134
HMYALGIPVSQYRRTTQVLGHESSYPIAYEDEKQDDDFYLFKFPNIDEYDFKKIVILLKQNGITT	-1.61

Sequence	soluble fraction (log2)
HMGSQLYTLEVEADEKISLIENNPLLIQKIYLKDNNLFSYKIASSSKTEIASIEKELEKNPSIKRLETA	-0.181
HMTIGIGKSLDFNTSGEKAYRIYNFKGAYVGTFKASDMTSLKNEVQKSNVKAGAYMVRSLDGHVNRLIEIK	-0.681
HMHKPLRILVYEELRMLIMTGQIKPGTRMMEIDLAESMGVSRTPVREAIRQLEKDNLVTIEPRRGAYVSD	-2.45
HMKIVPEPGTVLIREYQEERHEVTVTLDGAFDYKGTLYSSLSEIARLITGTRWSGPVFFGLRS	-0.4
HMTPNATWQDDAQNLLRDLIQHQPVLVQISAAKRLRDQAEQISRITGGETVTREHVEAAGHALGMGVT	0.0847
HMPTERLSMRRIRELLRLRFEVGLSTRLIATALGISKGAVGDYLQRAQVAGLGWPLPENLNDAALERRLFP	-0.681
HMNFIPGEKINLKIVQEGKEKNQGVGYLSDGTMVIVENGSQKLGQDVEVVVIKNIQSSAGKIVFGDISK	0.0978
HMSTSLIEFTIDRNNSIANKMIMDANIPEDILVVMIKRNGDVFVPNGSTKILPGDILVLSGNKLKY	-0.534
HMFLPGETFDVKIVKIGEGENQGVGYLDDGTMIVIENGRDHLNELARVIVTRVLQNSAGQMIFSDYEE	-2.27
HMAQLPADMSRVKSADVSDAQLREFVQKAQASGQTETQLFREFSRRGMPTNEINILRSRMVGLQNN	0.0388
HMSGSFDVTLDYLNSLRNLYPAIDVEQEFRKMYAWLDSNPKNRKTERGIKRFITGWLGRAQDKAP	-1.12
HMYLLPVTSTELKGNYPNPFNPETTISFDLKDAERVNLSIYNLKGQLVRTLVNSDLPIGRHRLIWDGNDS	-0.603
HMTSEVPVGSNVRIRASTLAGERDFEGTMLPPAGEGLTTLKLVNGYNLSYPSKDVLDIEFLGGAGE	0.057
HMNVVDTGTDANYRVKISAVNLNMRLGPSTSYKSKGYITPGNYTIIKTSGDWGKVKETGYWVALKYTSKIN	-1.06
HMEAELNSLVKTYENMKPKAAAQVFEELDMDVLLDVVERMKEKKLAPILAQVTPTRAKEITYELTQRR	0.0638
HMSSLEQVYPNPVSSILKLNSFIKNYKILNATGHEVLKGSGNTINVGKLPSGSYFLITSENYSIKFIK	-1.24
HMGMDALIGRRVFVSEEILPGDTGGRMAVDGDSWRAISVGTASNIPAGTEVRIRGHQSLVLEVEP	-0.116
HMLGDAVLRQVLETIPEDPAVDYLELRRNTGMTEADLDRVLADLENLGVINKKRTVEQVLYWRT	-0.294
HMAGFGDSLEKMSDAVEALKLLMSTEDARNDQNIQKIARELKDVFNKYRTHLRKSYPDQYDRIKSTL	-0.299
HMPTGRVVIPLNRLTASDVARILDEAYGRDHNFEVVKPSRLAKGIIVIGPKSEIDGIKELLAH	-0.535
HMGGGVSSSLAGNVFKVLLPAGSVVEQGQAVIVLEAMKMETEVNAPKSGSVSSVFVNEGDTVEVGDLLFAI	-0.17
HMINPASEKQLSFANSLIAKKEGGTETLNHYLHNRKVSSLEELDRKDVSEIINALKFAKEVT	0.217
HMIILYTDEQQRIIDRLNEFIGEQPSQNEAAKLLGISAPILTNLRKGTYTGTVDKFMNKLAAYFNIKADLG	-1.05
HMTNQEFNEVFKLLLAAYPNTKDKESVATIYFLTIANELTKKEFAEAVVKILKTRKSGFIPQPAEILEVAK	-0.67
HMNEWVSVEERLPTDERPVLAFIGYADTMNGFITTSYYFRFDPDPHWLGEGLIPVGLKTLFWMPLPAP	-0.0149
HMAAGELSGEALIALIERHPMALSALATTFGHSESDLRAFVEPLARQGRLRLFESQGTLFVGGIG	-0.022

Sequence	soluble fraction (log2)
HMVSSYTMAIQINGKLRATHDFSVDTSQEDIKKIIINLPAIQKYINGVEIKKFIIVPQKIVNIV	-2.52
HMESYTEEMLEKMSVSKLRTIARELQVDNMTREQIRFGKKTELIQNILEFTGREIENMQLYDK	-0.134
HMAHKYYSIMRPVSIGTFPDNGTILGIVNFDTRQMVESIGKMAWGYINYGKPLTEKQISDYELVAE	-0.451
HMAPSLQISLKQAIITAQQQHPGSKALNADFDGARGTPRYVIETLLPTGELRELTIDAQSGQVMEDHPDR	0.119
HMRKIFPFNPNFITDQRGYFLGMSTSEIDRLHHFRAANKWIQSAQEFQVVTKVSNAWLSEFSPYFNFP	-3.39
HMLSTGQLIRYYRKRAGMTQAELAEEVEMSEPGIRNYELGNRTPSKAQLSAIARGLGIEPEALI	-0.48
HMTIGKIVNIIEGSYANVRSAPDQNSEPIGRAYPGDAFLVDPLGSSGDWVKVTYEGQSGFIFQAYISV	-1.29
HMLAQDVIVKQDGGTILSKVLEIGTQEIAYKKWNSQDGPVYKIAKDQVLSVNYQNGEVDRFA	0.00732
HMNLTSSDIQKILSYALLADNSITLNSIEESMASLKLKKMSAEQLIELLEVSSMVLRNTNNSWSIL	-1.95
HMNRTKYYDFEGHPAKVVRLTLPVYLNKIGDEVVVYDSQKFAREASPISESQYNRMVAEIFQP	-0.354
HMKNTLDAYIRYLSNFLSRNNYPEAEDLSFINARADQAYEVFLEARRGGVDVSTAEELAMIALMQGY	-1.13
HMNIGEKIKKIRTQQNKSTYELADIINKNGFKISQSAISKIENGRKKIDIETLEEIAKALDIEVDLLIT	-0.14
HMGQVSDETGLARVVDALLAAHPDEVAKYRAGKTSLLGWFMGQVMKETRGQANPDLARALVLERLE	-0.101
HMKKVIEFKDVSFAFEKKPILQDFNLLVQNKDRIGIVGDNGVGKSTLLNLIAERLQPQSGQVII	0.00568
HMSHRVGDVVELTAVRMNDQGVFLDAGTGNTSDDILLHKHQMTSPVSVGDKVKVQLYLDAKNRITASMKL	-0.000204
HMGLVLIDSYNDIGSAKLITNKIRNLGLIFEENENKINVFAGPFEKNDINLKIDFLIRNGYTNAQLY	-2.48
HMENIDVGQDYKVTMNTIQNLMKTGLVTGTQYKELLREMGVHSGMGAITAQQHQIALDFLNKTMDSA	0.285
HMVTTADIILEFYSRNPNATLTQAAQHVARATGTTYSRQAISAQLKRLEVAGLVERNGHVTV	-0.393
HMENVALYIRLKSMASVYDDVHGYNIEWIKSMIGLSIDIEKLRTVLEDVSWITKVEEDVYSFSKNAKPFE	-4.31
HMKKTPLSELTNRAVELFIETVFMERNYSVSSQRQFISALKIFTVFYPQTKIHNLSLERLQSSFDKLLN	-0.452
HMTRTISKVAKELAINIETVRFYERRGLIEQPPKPELGYRHYPDETVNRIRFIKRAQELGFTLEEIANLLS	-1.75
HMHQAADFAGFITFNKDGVEQFSFGKYKNQTVVSVLEKDPGYYSWIQNADFPLYTKKILTAIRLAM	-0.577
HMAEKNALWEEDAVYAADSSALARDGYDAIVRTDKGGKKGYLVVGTGGRERFMPLQTLVMLGYLKK	-0.065
HMKSILSEIPGIGPKKRKSLMMQFGSVKNISEASLKDLSSTKGINSNLSKEIFNFFSVEKNN	-0.0118
